Here are results for one molecule from US20020155577A1 (AVENTIS PHARMA S A, published 2002).

This experiment has as its target T1, PAP1 (Parkin Associated Protein 1) fragment encoded by the insert of library plasmid pGAD-Ly111b, fused to … (human, UniProt Q4VX76 267-610).
T1 construct: Prey of the yeast two-hybrid test; It is a partial PAP1 clone from a human peripheral lymphocyte cDNA library; Any linker between GAL4 and the insert is not described; also called fragment of PAP1; plasmid isolated during the screening of the two-hybrid library
T1 sequence: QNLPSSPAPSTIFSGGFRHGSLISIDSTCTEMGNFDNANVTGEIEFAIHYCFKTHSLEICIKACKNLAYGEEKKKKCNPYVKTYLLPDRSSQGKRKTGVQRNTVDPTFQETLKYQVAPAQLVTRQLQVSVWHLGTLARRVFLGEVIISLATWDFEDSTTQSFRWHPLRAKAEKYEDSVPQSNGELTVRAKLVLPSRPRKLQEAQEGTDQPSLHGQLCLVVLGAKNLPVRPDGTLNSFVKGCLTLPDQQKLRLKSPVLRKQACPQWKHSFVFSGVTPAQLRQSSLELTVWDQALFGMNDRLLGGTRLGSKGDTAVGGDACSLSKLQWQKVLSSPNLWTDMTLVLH
In words: yeast two-hybrid in strain L40, beta-Gal activity assay. The procedure:
A sheet of nitrocellulose is preplaced on the Petri dish containing the yeast clones, which are separated from each other. This sheet is then immersed in liquid nitrogen for 30 seconds, in order to rupture the yeasts and thus to release the β-galactosidase activity. After thawing, the sheet of nitrocellulose is placed, colonies facing upwards, in another Petri dish containing a Whatman paper which has been presoaked in 1.5 ml of PBS solution (60 mM Na₂HPO₄, 40 mM NaH₂PO₄, 10 mM KCl, 1 mM MgSO₄, pH 7) containing 15 μl of X-Gal (5-bromo-4-chloro-3-indoyl-β-D-galactoside) at 40 mg/ml of N,N-dimethylformamide. The dish is then placed in an incubator at 37° C. The assay is termed positive when the colonies on the membrane turn blue after 12 hours.
To determine the specificity of interaction between the fragment corresponding to the PAP1 protein and the central region of parkin, a two-hybrid test for specific interaction with other nonrelevant proteins was carried out. To carry out this test, we transformed strain L40 with the control plasmids plex9-cAPP or pLex9-HaRasVal12, in place of the plasmid pLex9-parkin (135-290), which respectively encode the cytoplasmic domain of the APP or the HaRasVal12 protein, which are fused to the LexA DNA binding domain, and with the plasmid isolated during the screening of the two-hybrid library. […]

B1: central region of parkin (amino acids 135-290) fused to the LexA bacterial repressor, from vector pLex9-parkin (135-290) (other)
chain: GSPAGRSIYNSFYVYCKGPCQRVQPGKLRVQCSTCRQATLTLTQGPSCWDDVLIPNRMSGECQSPHCPGTSAEFFFKCGAHPTSDKETSVALHLIATNSRNITCITCTDVRSPVLVFQCNSRHVICLDCFHLYCVTRLNDRQFVHDPQLGYSLPCV
notes: also called central portion of parkin; not shown: LexA bacterial repressor as encoded by vector pLex9 (pBTM116)
As to B1, the binding result is given as “binds”.
